Data from publication PMC2871789, “Characterization of the Interaction and Cross-Regulation of Three Mycobacterium tuberculosis RelBE Modules” (PLoS ONE, 2010).

B1: 6xHis-RelB (Rv1247c), purified (natural protein)
chain: MAVVPLGEVRNRLSEYVAEVELTHERITITRHGHPAAVLISADDLASIEETLEVLRTPGASEAIREGLADVAAGRFVSNDEIRNRYTAR
notes: also called his-tagged RelB; histidine-tagged RelB; not shown: His6, N-terminal, kept
B2: GST-RelG (Rv2866), purified (natural protein)
chain: MPYTVRFTTTARRDLHKLPPRILAAVVEFAFGDLSREPLRVGKPLRRELAGTFSARRGTYRLLYRIDDEHTTVVILRVDHRADIYRR
notes: also called GST-tagged RelG; pGEX-2866

Tests used:
[1] = molecular target: T1, GST-RelE (Rv1246c), purified (M. tuberculosis, UniProt O50461 1-97); assay: pull-down; conditions: both partners purified
T1 construct: the methods state the opposite tagging; also called GST-tagged RelE; pGEX-1246c
T1 sequence: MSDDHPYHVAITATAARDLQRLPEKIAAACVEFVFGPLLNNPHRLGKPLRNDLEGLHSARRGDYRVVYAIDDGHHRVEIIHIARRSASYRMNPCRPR

[2] = molecular target: T2, 6xHis-RelF (Rv2865), purified (M. tuberculosis, UniProt O33347 1-93); assay: pull-down; conditions: both partners purified
T2 construct: also called his-tagged RelF; pET-2865; not shown: His6, N-terminal, kept
T2 sequence: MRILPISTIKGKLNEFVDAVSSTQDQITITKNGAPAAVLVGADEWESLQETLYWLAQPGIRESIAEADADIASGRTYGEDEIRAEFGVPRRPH

| Binder | binding result [1] | binding result [2] |
| --- | --- | --- |
| B1 | binds |  |
| B2 |  | binds |
